Consider four molecules from patent US7179468 (CORNELL RESEARCH FOUNDATION, dated 2007).

Series [1] deals with Q652L peptide (C52 peptide with leucine for glutamine at position 652) (HIV-1 (HXB2 strain)). In words: sedimentation equilibrium, 4 C; self-association.
Series [2] has as its target HIV-1 envelope glycoprotein (gp120/gp41 complex) of isolate 2076c1.3 (HIV-1). In words: cell-based or functional assay.
Series [3] addresses HIV-1 envelope glycoprotein (gp120/gp41 complex) of isolate 92US657 (HIV-1). The series is described as follows: cell-based or functional assay.
For series [4], the target named is HIV-1 envelope glycoprotein (gp120/gp41 complex) of isolate HC4 (HIV-1). The series is described as follows: cell-based or functional assay.
Series [5] addresses HIV-1 envelope glycoprotein (gp120/gp41 complex) of isolate JRFL (HIV-1). The series is described as follows: cell-based or functional assay.
The target of series [6] is HIV-1 envelope glycoprotein (gp120/gp41 complex) of isolate NL4-3 (HIV-1). The series is described as follows: cell-based or functional assay.
In series [7] the target is HIV-1 envelope glycoprotein (gp120/gp41 complex) of isolate DH123 (HIV-1). The series is described as follows: cell-based or functional assay.
Series [8] addresses HIV-1 envelope glycoprotein (gp120/gp41 complex) of isolate SF162 (HIV-1) (UniProt P19549). In words: cell-based or functional assay.
Series [9] deals with the molecule itself. In words: sedimentation equilibrium; self-association.

As for “Q652L peptide (C52 peptide with leucine for glutamine at position 652)”, the molecular weight from sedimentation equilibrium (expected for a trimer 19,419) in series [1] came to 17700.
For “human antibody 2F5 isolated from an HIV-1-infected donor”, the EC50 IgG (ug/ml), neutralization of HIV-1 (p24 production in PHA-activated PBMC) in series [2] came to 38.1 µg/mL; in [3], 57.8 µg/mL; in series [4], 34.2 µg/mL; in [5], 4.37 µg/mL; in series [6], 15.2 µg/mL.
CD4-IgG2 (Fc fusion): the EC50 IgG (ug/ml), neutralization of HIV-1 (p24 production in PHA-activated PBMC) in [2] was above 10 µg/mL; in series [3], above 10 µg/mL; in [7], 5.18 µg/mL; in [4], above 10 µg/mL; in series [5], 0.51 µg/mL; in [6], 0.21 µg/mL. The same molecule returned an EC50 IgG (ug/ml), neutralization of HIV-1 (p24 production in PHA-activated PBMC) in series [8] below 0.062 µg/mL.

B1: N656L peptide (C52 peptide with leucine for asparagine at position 656) (peptide)
chain: NHTTWLEWDREINNYTSLIHSLIEESQNQQEKLEQELLELDKWASLWNWFNI
notes: No unique oligomeric state; The apparent molecular weight depends on the concentration
Consider B1, for which, in [9], the binding result is reported as “binds”.
